This is an account of results in article doi:10.1101/2023.04.22.537891.

In the data set the target is T1, TaNAC016-3A (Triticum aestivum, UniProt A0A3B6EBU1 1-353).
T1 sequence: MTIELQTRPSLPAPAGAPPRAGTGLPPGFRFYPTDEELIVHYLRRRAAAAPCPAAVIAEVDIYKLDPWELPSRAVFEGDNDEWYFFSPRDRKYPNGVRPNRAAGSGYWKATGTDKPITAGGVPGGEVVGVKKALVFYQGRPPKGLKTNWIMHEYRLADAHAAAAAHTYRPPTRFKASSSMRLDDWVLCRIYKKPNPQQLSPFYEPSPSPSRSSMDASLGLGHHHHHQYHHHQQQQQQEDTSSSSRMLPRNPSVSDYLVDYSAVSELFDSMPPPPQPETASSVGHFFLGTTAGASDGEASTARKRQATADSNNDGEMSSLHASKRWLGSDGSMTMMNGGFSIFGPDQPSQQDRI
Description: EMSA.

B1: proTaPAO-4B EMSA probe (PAOsite2) (dsDNA)
DNA 1: AAGGATGGCCGGCACTTACGCAACCTGTCCTTAGACCCCCACAGAAC
DNA 2: GTTCTGTGGGGGTCTAAGGACAGGTTGCGTAAGTGCCGGCCATCCTT
For the molecule B1, the binding result is “binds”.
